T1: human placental RNase inhibitor, P13489
T1 chain: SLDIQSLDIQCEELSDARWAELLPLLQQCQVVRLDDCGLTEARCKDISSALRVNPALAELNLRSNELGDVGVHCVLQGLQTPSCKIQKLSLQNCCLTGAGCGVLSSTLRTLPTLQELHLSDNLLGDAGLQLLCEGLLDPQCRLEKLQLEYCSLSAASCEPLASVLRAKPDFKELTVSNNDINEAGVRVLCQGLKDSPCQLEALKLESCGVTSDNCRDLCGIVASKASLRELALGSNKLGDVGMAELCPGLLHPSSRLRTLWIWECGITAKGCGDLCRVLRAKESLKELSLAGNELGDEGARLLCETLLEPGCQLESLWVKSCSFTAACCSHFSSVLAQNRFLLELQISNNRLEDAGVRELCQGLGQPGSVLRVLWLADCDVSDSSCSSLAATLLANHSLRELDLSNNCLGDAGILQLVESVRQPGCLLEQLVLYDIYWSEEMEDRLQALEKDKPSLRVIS


Target: T1, human placental RNase inhibitor, P13489

Protein	RNase activity (yeast tRNA substrate)
recombinant carboxy-terminal FLAG-tagged chicken (Gallus gallus) leukocyte RNase A-1 (protein) VPTYQDFLRTHVDFPKTSFPNIAAYCNVMMVRRGINVHGRCKSLNTFVHTDPRNLNTLCINQPNRALRTTQQQLPVTDCKLIRSHPTCSYTGNQFNHRVRVGCWGGLPVHLDGTFP	completely inhibited RNase activity
recombinant carboxy-terminal FLAG-tagged chicken (Gallus gallus) leukocyte RNase A-2 (protein) VPTYQDFLYKHMDFPKTSFPSNAAYCNVMMVRRGMTAHGRCKSFNTFVHTDPRNLNTLCINQPDQALRTTRRHFRITDCKLIRSHPTCRYSGNQFNRRVRVGCRGGLPVHLDGTSP	completely inhibited RNase activity

— US20100305025
